Residue numbers refer to the chain shown, from its start.
T1: HipAso D306Q active site mutant (non-phosphorylated) (Shewanella oneidensis MR-1, UniProt Q8EIX3 1-433, D306Q)
T1 sequence: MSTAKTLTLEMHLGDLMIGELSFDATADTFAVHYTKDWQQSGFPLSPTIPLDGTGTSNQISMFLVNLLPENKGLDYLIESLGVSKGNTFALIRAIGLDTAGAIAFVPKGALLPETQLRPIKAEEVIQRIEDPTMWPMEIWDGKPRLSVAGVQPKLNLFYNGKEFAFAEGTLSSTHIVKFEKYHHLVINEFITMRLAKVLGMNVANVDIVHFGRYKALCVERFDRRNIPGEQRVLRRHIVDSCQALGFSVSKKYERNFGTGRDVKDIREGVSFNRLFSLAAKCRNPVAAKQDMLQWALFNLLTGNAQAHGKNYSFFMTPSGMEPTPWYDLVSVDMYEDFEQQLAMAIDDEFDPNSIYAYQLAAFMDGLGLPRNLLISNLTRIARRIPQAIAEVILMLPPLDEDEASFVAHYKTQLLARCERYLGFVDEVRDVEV

T2: HipBso (Shewanella oneidensis MR-1, UniProt PDB:4PU3_2 1-118)
T2 sequence: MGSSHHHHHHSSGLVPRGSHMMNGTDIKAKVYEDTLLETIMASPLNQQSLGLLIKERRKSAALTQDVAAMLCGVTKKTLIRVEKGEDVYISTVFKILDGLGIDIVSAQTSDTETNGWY

B1: Shewanella oneidensis MR-1 HipBso (SO0705) (natural protein, UniProt Q8EIX4 1-78, looked up)
chain: MASPLNQQSLGLLIKERRKSAALTQDVAAMLCGVTKKTLIRVEKGEDVYISTVFKILDGLGIDIVSAQTSDTETNGWY
B2: Shewanella oneidensis MR-1 HipAso (SO0706), recombinant wild type (enzyme)
chain: T1 sequence with Q306D
B3: hipBAso operator DNA (26 bp) (dsDNA)
DNA 1: ATTAGGTGTACTTATCTACACTTTTT
DNA 2: AAAAAGTGTAGATAAGTACACCTAAT

Tests used:
SEC = target: the molecule itself; assay: SEC
[1] = target: T1, HipAso D306Q active site mutant …; assay: ITC
[2] = target: B1; assay: ITC
HipBso = target: T2, HipBso; assay: ITC

Binder: B1
- stoichiometry N (SEC): 2
- Kd [1]: 0.3 µM

Binder: B2
- stoichiometry N [2]: 2 HipAso per HipBso dimer

Binder: B3
- Kd (HipBso): 0.29 µM

Reference: publication PMC4150777 (Nucleic Acids Research, 2014)
